Measurements as given in patent publication CN107042090A.

How the values were obtained:
[1] = molecular target: Myc-GST融合蛋白 (Myc标签与谷胱甘肽融合的蛋白); assay: ELISA, Myc-GST coated at 5 μg/mL, HRP anti-His secondary antibody; heat test at 80℃
[2] = molecular target: Myc-GST融合蛋白 (Myc标签与谷胱甘肽融合的蛋白); assay: ELISA, Myc-GST coated at 5 μg/mL, HRP anti-His secondary antibody; heat test at 90℃
[3] = molecular target: Myc-GST融合蛋白 (Myc标签与谷胱甘肽融合的蛋白); assay: ELISA, Myc-GST coated at 5 μg/mL, HRP anti-His secondary antibody; heat test at 70℃

B1: 抗c-Myc标签单域重链抗体 (anti-c-Myc tag single-domain heavy-chain antibody) (VHH, not shown: small tags and cut ends)
VHH: QLQLVESGGGEVQAGGSLKLSCAASGSNVQISAMGWYRQVPGKQREFVASETNGGRIDYADFVEGRFTISRDRAKNTVYLQMTSLRPEDTAVYYCNAAPGGWYADLREEYWGKGTLVTVSS
OD450 [1]: 1.2 OD450
OD450 [2]: 1.1 OD450
OD450 [3]: 1.5 OD450
